We go through one protein from publication PMC5486983.

Substrate in the data set: O=C(O)c1c[nH]c2ccccc12
As to the kind of experiment: LC-MS of adenylate. The format is biochemical, Caenorhabditis elegans. Conditions: with ATP and coenzyme A; adenylate formed, no CoA ester.

B1: ACS-7 (Caenorhabditis elegans) (protein)
chain: MIFHGEQLENHDKPVHEVLLERFKVHQEKDPDNVAFVTAENEDDSLGFQQLGKKVLQISEWFVENGYKKGDVFLLASYNNWRCFAAALGAWRAGLIVSAAASQFTSFEMNYQIEDSQSQVILVDKHTLPVVQEACKNLKFVKQIISISANPPSPVIKFDVLTSRLVRNLKMPLIDPKNDIVFLPYSSGTTGKPKGVMISHLNFSMMLESSLRFFDANAKAIGLPPDFVLPYDLHFLPMYHAMGMFRTLLTSYRGTTQIMFTKFDMELMLKNIEKYSIMVLSLVPAIAVRMLNSPLLQKYDVSSLVSVTVGSAPFPESASKKLKQLLPNVNIVQGYGMTELTFATHLQSPGSPDGSVGRLVPGTSMKVKKEDGTLCGPHEIGELWIKGPQMMKGYWKKEQQTNELLDEHGFMRTGDIVYFDKNGETFICDRIKELIKVNAKQVAPAELESVILEHDDVADVCVFGVDDASSGERPVACVVSKRGRDMETSKAIMKHINQKLARYKHIKEIEFVSEIMRTGTGKLLRRAMKKAFLDAKKAKL
Broadly, the Km is the concentration of substrate that gives half-maximal velocity. With B1, the Km turned out to be 270 ± 90 µM.
